Measurements as given in the DeepSol protein solubility set.

Experiment: soluble on expression in E. coli; label from the status in PepcDB or PDB records

Sequence	soluble on expression in E. coli
MFEIRDVDLAGRIGRIYTQHGVVETPAFFPVIDVYRQEVSVDEVRAAGFGQVITNAYLLWKRFGWEAAEKGVHRILGFPGVVMTDSGAYQILEYGGVELSQGEVVEYQKRLGSDIAVILDIPTGDVGRREAEESVRETIRRALEARVMIEGDERIWVYPVQGGRYFDLVEESARVGGRLGFYRMYGIGSPTVFLERYMYHVVVEAVYRAKKHLPWGRPVHLFGAGHPLIFPYAVALGVDTFDSASYILYAREGRYITEYGVYRIEDLDYLPCSCPVCSRYTPQELREMDRVERTRLLALHNLYVISASMRRVKQAIREGRLWELLEETSRKHPSTARVMARMRRYIDALEKGSARGRGVVRGVRAYGLESLSNPRLSRFSSDAARLVEAMAEKWGGGKAVLKPLDPKPEPGQCESMVGGGEWILFYQPFLGVFPVEACGAYPSLQIDYPQEGLPAEVIGDLASKIASTVSILRGRGFTVRLEYCGKVEWQARAVEALKTAAAGDLPTVEACG	soluble
MSLKITRIDIHRTDLPVRGGVYRLSGGREYHSYDATIVSIETDTGLTGWGESTPFGSTYIAAHAGGTRAALELLAPAILGMDPRQHDRIWDRMRDTLKGHRDARAALDIACWDIAAQAAGLPLCDMTGGRVAGPVPVISSIGGDTPEAMRAKVARHRAQGFKGHSIKIGASEAEGGPALDAERITACLADRQPGEWYLADANNGLTVEHALRMLSLLPPGLDIVLEAPCASWAETKSLRARCALPLLLDELIQTETDLIAAIRDDLCDGVGLKVSKQGGITPMLRQRAIAAAAGMVMSVQDTVGSQISFAAILHLAQSTPRHLLRCALDTRAMTTAELAEIDAPLRDGGASAPSDPGLGLRVNRDALGTPVKTFGDPIEGHHHHHH	soluble
MDHPVQLSIENPAVSMDSTGQILWAVQSEIQAVYLRSLFEQKEANDGERLTLSVKNLGSSEISPQTLAHSSNGHFFMACGDGKYIVYTYKQYDAIALKIRHYGQGLEFVWAAHPNMFAVRESATNVKIKKNFKDHKSIRSDMMLEGISGGPLLALRSNDSLCFFDWESAALVRRIEITSKSVYWSDNREMVAICGDDSFYVFKYSAEAVANATEVTEDGIEDAFKVIGEQAEAVETGFWIGDCFIFTTALTINRINHYAGGEIVTVAHVDRPLCLLGYMAEDSRVYAVDKDLNVISYELFQSDLEYQTATMRRDIGTRGGPQICRICRLPSSANLPNLPSTANFKKVDLPNLPSSANFEICRTQYNFD	not soluble
MGEAAYVTVSALTKYIKRKFDVDPHLENIWIKGELSNVKIHTRGHIYFTLKERKGRMQSVMFARQSERLPFKPENGMKVLVRGGISVYEPSGNYQLYAKEMQPDGVGALYLAYEELKKKLAGEGLFDDRYKKQIPAFPATIGVVTSPTGAAVRDVITTLKRRYPLVKVIVLPALVQGENASRSIVTRIEEANEKEICDVLIVGRGGGSIEELWAFNEEIVARAIFASNIPIISAVGHETDFTISDFVADIRAATPTGAAEIAVPHTTDLIERTKTAEVRMTRAMQQHLGQEKGRIQTLQSSYAFRFPKRLYAQKEQQFDLAYQQFQAQLTALLDRKSRQLERETYRLEALHPHEQLKQARTRYQEQTNQLRKNMNIQMKQLHSQFQTVLGKLNALSPLQVMERGYSLAYKEDKLIKSVSQIEEQDRLEIKLKDGVLTCEVLEKRGEEK	not soluble
GSHMGRSQKVSQMTKVETRLEILDVTLRDGEQTRGVSFSTSEKLNIAKFLLQKLNVDRVEIASARVSKGELETVQKIMEWAATEQLTERIEILGFVDGNKTVDWIKDSGAKVLNLLTKGSLHHLEKQLGKTPKEFFTDVSFVIEYAIKSGLKINVYLEDWSNGFRNSPDYVKSLVEHLSKEHIERIFLPDTLGVLSPEETFQGVDSLIQKYPDIHFEFHGHNDYDLSVANSLQAIRAGVKGLHASINGLGERAGNTPLEALVTTIHDKSNSKTNINEIAITEASRLVEVFSGKRISANRPIVGEDVFTQTAGVHADGDKKGNLYANPILPERFGRKR	soluble
MGSDKIHHHHHHMSGTLITSDVDVDAHGKQQAYLRVPHSVHRSAYGWIPVPIAVIRNGDGPTLVISAGVHGDEYEGQIAVATLIRTLDATDIRGRLILLPMVNVPAAEAGCRTSPIDAGNLNRLYPGDPKGMPSQMIAHFHEEVILPLADYAVDLHSGGSSLIYPATVMRGPSHSPQEEDGLATLVDAFDLPYTWVFQGGGGRDSTARTAMGAANRKGVINVMAELGGAGCVTPDVLHRTERGLRRILHAVGMLPGYVPDGAQGTRAVSVQGSVYAFETGVFEPLKSIGGDVVKGEAVAHIHHPETPGKAPDVVLSPHAGMVLAMRAMAQVRRGDALYQIAADAG	not soluble
MSEIIVYTQNDCPPCTFVKNYLNEHQIDFEERNINNQQYRNEMIDFDAFSTPFILLNGNPMYHVDLDEINKVLNIQD	not soluble
MSLKDQVQLVKRRDSIRYEIVSIQDRLSFEKGFFAVIRACQLLSQKNDGIILVGVAGPSGAGKTVFTEKILNFLPSVAVISMDNYNDSSRIVDGNFDDPRLTDYDTLLKNLEDLKEGKQVEVPIYDFKSSSRVGYRTLDVPPSRIVIIEGIYALSEKLRPMLDLRVSVTGGVHFDLVKRVLRDIQRAGQQPEEIIHQISETVYPMYKAFIEPDLQTAQIKIINKFNPFTGFQSPTYILKSRKEGHHHHHH	not soluble
GMSDIKKLGSSWIINWFFGFNQIPTNEDSSIYMKSVLTCAKADGVISPEEKDWALGFCASWGVADWVIEDLKTYEADEALEEVIARSPQVSMAQRDILLSAIWVSAADGELHEKEKAKIRKMATILGIKEEIVDQLEQLYYYEAALRQKRLNLLYPQKSPY	soluble
MAHHHHHHMFRAARLLRGVSPFSVFLMDQKNNPSLQGVSIAKRGKMLSKMYKELSQQQRRDLQKRAEVHPSLRKSKRARPPRKTEFAEFVRQNYKVVQGLNYRKRFSALSQLYELHKPIEVQVTKALKEAKAKKVTSAKTAVKKAATKSKTAKRAKGGKSTPKKSTGKK	soluble
GPGSMSGGLPRQFVLKVERHVPVNKGMGLAYPTVPGGSDVADADATPHAGAGERHQSNEAGGDMASGTLKDEAGSIHLSHEKETQTEEVPLPTCEANACDVDGTHCLSVDALDMAVRSNGAALRQMRSSSHLTAAFHTSASDDYGDSISPNPSDRQSFIGSLRVSYVELMSGESIPVYFPPSLGTSGGVEGKTMTLSEDLGCENQ	not soluble
MKQKKAWAIVKEVIEEADIVVEVVDARDPIGTRNKKLERMVLESGKKLLLVMNKADLVPKEWAEEYKRKSEIPVVFISARERKGTGILRRELKKIAKMINKERVKVALIGYPNVGKSTIINVLKGKHSVGTAPIPGYTKGKQMIRLTKKIWLLDTPGVVPIDDFDELVIKGGFPADKIREPVKPALKLIRRILETRKEALTEKFNITEFEDEEDILRKIGERRGIIREGGVVDIEETARWFLREWQTGRFTLFSTEEKREEEYIESFDEILEIIKEQNLTDPRMIIWKFGNILEDYLGAERRFGAIKVGEFMIAIATGFKKCPNAIKFVERITRKNAVAAECFGKKWKGIVAILE	soluble
MHVNKKIIYVSHDAHFHGAQLLSLHTIKALKENFHYSVAIISIRTGILIHDFQKYGPVYCLEEDYPTENKVESLIKKLLSQDYTIAICSTVISGDIVALLAKHNIKVISLIHELPHLIQQYSAEGKARKIAESAHKIVFPSQYVYEKFHTITQLDHQKCHILPQGLFNHNPYKNNIAKARNELRKKHNLPLDSKIILGVGFADHRKGIDLFSLIAYSVRKIHKNIHFIWVGKTDVHFLNTLSQRYTAHFTLVEPTPDIGLYNAGADLYLLTSREDPFPNVVLEALDTKVPVIGFKNAGGFGDVVTEQTGALVDYLNLPMMLEKIYEFIGDEDLRLQKGTFGQELIEKNFNFLHYIYQLLNLLEHNYKKISVIVPNYNYEKYLSERVKSILNQTYPLYELIFLDDASTDNSVSIFEKLLSNENKHHLKIQQIINDKNSGSVFKQ	not soluble
MGSDKIHHHHHHMETLQLRDISETALLPLWARAMETLRPDAIIHDDKALEMYQRLNYDFKRFSNAWLSQLAIAIRTDLIDKLVMDFINAHPQAVIINLGAGFDSRYLRVDNGQIHWFDLDLPNVIAARRLFFSDSDRYRMLEQSLFDVSWLEHAAGESDNCLILAEGVLMYFTEQRIKQFFNDLAERIPHARMLLEMLPHGALGQAHLHEAIGWMNAAFQWTLHNIRRLESWNSHIKVRQEWCILDYHWERWGALSLLAWSPWHRYLFGEKLALLEFD	not soluble
MNRLVILARVSTSKQDTERQLSDLNEVCTRNQYDLVNTFTETVSGKYGITERTTLQAIIKMAELKQFDKLLVSEVSRIGRKTSEVLKFIEILTERKISIYIHNYGLETLDRNLNQNPLIGMMINFLSSFSDMERTLTISRVKSGLEEARRRNVILGRPKNSTKDIDIFIDENKRLFELIKKQLTIREIARLTYKSTTTVVKAIKLYKLHPEKFLSAT	not soluble
MRRILSVLLENESGALSRVVGLFSQRAFNIESLTVAPTDDPTLSRMTIEAVGDAQALEQIEKQLHKLVDVFKVVNLSEQEHIEREIVLAKVRAVGSSRDEIKRLADIFRGQIVDVTPKSYTIQLSGTNDKVDAFISALKEETTLLEIVRSGLISVSRGEKNILLEHHHHHH	not soluble
MGSDKIHHHHHHMALRLRKENDLWVQTFKAAGQSHLHRVEEEVFLGKCDQEPDLNLELYKDNKAVTDLITQALGSEVEKLSLQFETDVQRTYHVFEADDTAIEVCLDDGAVKTATAQSKICEVEFELKQGAVKTLIQFAQQWINRYELWLDVRSKAERGNLLALGQAASPAVHAKNLNLDKNISAEQALKKIVENCLGQFLPNMAAIADGVAEAEHIHQARVSLRRLRSALKHFSAWSDELNPVWEEQIAELFRQLGDTRDEDAIRTEILPMIVQHGSPELLLPISEQPLKDLATLFKSADTIKLILALLAFAYSEEDNQNGKGKLKKQIGKSLDKLHHQVVSNADHFTELEVTEQHRTRKKAKQLRYCIEFISSLYPRKNIQQFLKQLQPVQNTLGLYNDLFIAEDLFNKAIEHDPHFWFALGWVKAKQPYLQNQSAEALQKFKQAKTFW	not soluble
MGSDKIHHHHHHMCGHAKGGLTVLVSSRACPPQVQHRYLKTVLYLDCPQEVGDQSSPWWLLNIGYWLYGSACMLCKAAFGIELATEPQMEFSAHKGTTSISLVRDALQGAELRGLDVATVLSHAHIDPRLLDQRYARVPAGTFSRLWIALADLLDDEFFAADSHPLRRGSFKLMAQLALGCDTIGQALKRILAFLRTALDDIYGSVECEGEHAAIIIHDHGELRRVFCYGAWLVLVHGLLCWLCDRRIPIVKLSMRPPQPVDDSDYRMRFCEEIEWRADRTSAVFEKSFLAYKVCQTPVSLPAFLKGTPSNFLVKYRNDDSTSIMIRRRLKLLSPHTWPELDELARDLSMSSSTLQRRLYAEGFTYQRLKDNLRRDISISLLCRAGMTVDGVASEVGFIETSAFHRAFKKWTGITPGAYRRSLLSPRGD	not soluble
MNPQRGILFACLLVVVTNRGATAQHARPPVGVTGDVTGARIDPPSDKCENPSVNIATTEAPKIVTTAEPAANSTKPAQPNSATGPVVLLTIVAVTMN	not soluble
KPEPTNSSVEVSPDIYQQVRDELKRASVSQAVFARVAFNRTQGLLSEILRKEEDPRTASQSLLVNLRAMQNFLNLPEVERDRIYQDER	soluble
EHVEMLSAAGATVVAFDPLSEQLPQCDGLIIPGGFPEEHCDVLEQRADLKQQVCDVIAQGIPVHAECAGLLWLLSTLDGRPMLDVIPTHGAMGRRLTLGYRDAVVVHDSVIYRAGERVTGHEFHHTAIADSVVPGWDSAWGWRAWDGSPKVEGFVSGNVHASYLHVHPAAVPAAVRRFVEACAR	not soluble
